Where two headings read alike, the source gives them in different places.
How the values were obtained:
[1] = molecular target: CD16 F158 (FcγRIIIA) on Jurkat reporter cells (human, UniProt P08637 17-254); test: cell-based or functional assay
[2] = molecular target: CD16 V158 (FcγRIIIA) on Jurkat reporter cells (human, UniProt P08637 17-254); test: cell-based or functional assay
[3] = molecular target: T1, human CD163 domain 1-9, recombinant, immobilized on a CM5 sensor chip (human, UniProt Q86VB7 42-1050, limits assumed); test: SPR (Biacore T200), human CD163 domain 1-9 immobilised on CM5 chip, antibody injected, 1:1 kinetic fit
T1 construct: the whole entry is named; also called immobilized CD163
T1 sequence (Q86VB7 42-1050 limits assumed): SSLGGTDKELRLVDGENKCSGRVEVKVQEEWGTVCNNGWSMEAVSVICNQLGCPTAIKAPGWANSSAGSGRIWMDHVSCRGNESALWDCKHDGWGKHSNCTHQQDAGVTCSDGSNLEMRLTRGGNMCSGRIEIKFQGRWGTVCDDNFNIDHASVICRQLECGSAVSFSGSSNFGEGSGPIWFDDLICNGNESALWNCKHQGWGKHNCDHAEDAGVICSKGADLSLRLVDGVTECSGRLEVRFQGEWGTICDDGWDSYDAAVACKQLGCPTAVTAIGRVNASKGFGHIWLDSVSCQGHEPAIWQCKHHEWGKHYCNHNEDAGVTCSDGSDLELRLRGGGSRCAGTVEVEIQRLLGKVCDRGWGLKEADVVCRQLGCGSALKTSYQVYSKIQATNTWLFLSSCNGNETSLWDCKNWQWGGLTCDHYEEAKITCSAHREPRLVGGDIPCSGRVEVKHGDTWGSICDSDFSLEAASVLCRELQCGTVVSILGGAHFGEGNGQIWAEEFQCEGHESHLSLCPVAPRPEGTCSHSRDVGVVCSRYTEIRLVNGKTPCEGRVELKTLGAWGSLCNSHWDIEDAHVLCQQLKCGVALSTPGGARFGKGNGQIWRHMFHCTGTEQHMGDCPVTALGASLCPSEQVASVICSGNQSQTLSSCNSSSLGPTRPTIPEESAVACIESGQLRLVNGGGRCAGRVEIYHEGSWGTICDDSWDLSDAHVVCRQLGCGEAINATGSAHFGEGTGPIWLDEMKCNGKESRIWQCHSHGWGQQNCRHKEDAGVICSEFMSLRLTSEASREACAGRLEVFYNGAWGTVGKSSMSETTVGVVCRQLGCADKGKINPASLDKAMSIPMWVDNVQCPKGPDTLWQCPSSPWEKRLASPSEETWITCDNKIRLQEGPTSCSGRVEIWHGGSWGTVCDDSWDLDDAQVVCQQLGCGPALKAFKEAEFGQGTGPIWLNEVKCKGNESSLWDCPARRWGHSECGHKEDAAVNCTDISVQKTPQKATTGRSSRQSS

[4] = molecular target: T1, human CD163 domain 1-9, recombinant, …; test: as above; remark: listed apart in the source

Chain of CD16 F158 (FcγRIIIA) on Jurkat reporter cells (P08637 17-254): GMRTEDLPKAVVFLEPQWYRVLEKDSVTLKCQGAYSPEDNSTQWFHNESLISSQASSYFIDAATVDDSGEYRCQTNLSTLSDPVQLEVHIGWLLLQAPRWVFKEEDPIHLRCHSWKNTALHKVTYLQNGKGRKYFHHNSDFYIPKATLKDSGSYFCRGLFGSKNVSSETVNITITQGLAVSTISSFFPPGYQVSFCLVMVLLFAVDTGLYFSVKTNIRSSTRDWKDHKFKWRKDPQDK
Chain of CD16 V158 (FcγRIIIA) on Jurkat reporter cells (P08637 17-254 F176V): as the sequence (P08637 17-254) above, with F160V counted along it

Relative EC50 ADCC F158 (low); target cells FlpIn293-hCD163 [1]	Relative EC50 ADCC V158 (high); target cells FlpIn293-hCD163 [2]	Binder	also measured
4 relative (EC50 OS001/EC50 construct)	3.7 relative (EC50 OS001/EC50 construct)	OS016 (antibody, human IgG1, kappa) heavy: QVQLQESGPGLVKPSETLSLTCTVSGYSITSDYAWNWIRQFPGNKLEWMGYITYSGSTYYNPSLKSRVTISVDTSKNQFSLKLSSVTAADTATYYCVSGTYYFDYWGQGTTLTVSSASTKGPSVFPLAPSSKSTSGGTAALGCLVKDYFPEPVTVSWNSGALTSGVHTFPAVLQSSGLYSLSSVVTVPSSSLGTQTYICNVNHKPSNTKVDKKVEPKSCDKTHTCPPCPAPELLAGPSVFLFPPKPKDTLMISRTPEVTCVVVDVEFEDPEVKFNWYVDGVEVHNAKTKPREEQYNSTYRVVSVLTVLHQDWLNGKEYKCKVTNKALPAPEEKTISKAKGQPREPQVYTLPPSRDELTKNQVSLTCLVKGFYPSDIAVEWESNGQPENNYKTTPPVLDSDGSFFLYSKLTVDKSRWQQGNVFSCSVMHEALHNHYTQKSLSLSPGK light: DIVMTQSPSSLSASVGDRVTITCRASQSVSSDVAWFQQKPGKSPKPLIYYASNRYSGVPSRFSGSGSGTDFTLTISSLQAEDFAVYFCGQDYTSPRTFGGGTKLEIKRTVAAPSVFIFPPSDEQLKSGTASVVCLLNNFYPREAKVQWKVDNALQSGNSQESVTEQDSKDSTYSLSSTLTLSKADYEKHKVYACEVTHQGLSSPVTKSFNRGEC	
1.2 relative (EC50 OS001/EC50 construct)	1.4 relative (EC50 OS001/EC50 construct)	OS010 (antibody, human IgG1, kappa) heavy: not shown light: DIVMTQSPSSLSASVGDRVTITCRASQSVSSDVAWFQQKPGKSPKPLIYYASNRYSGVPSRFSGSGSGTDFTLTISSLQAEDFAVYFCGQDYTSPRTFGGGTKLEIKRTVAAPSVFIFPPSDEQLKSGTASVVCLLNNFYPREAKVQWKVDNALQSGNSQESVTEQDSKDSTYSLSSTLTLSKADYEKHKVYACEVTHQGLSSPVTKSFNRGEC	

Further lines, the binder ahead of its results:

Binder	Relative EC50 ADCC F158 (low); target cells FlpIn293-hCD163 [1]	Relative EC50 ADCC V158 (high); target cells FlpIn293-hCD163 [2]	also measured
OS000 (antibody) heavy: not shown light: DIVMTQSPSSLSASVGDRVTITCRASQSVSSDVAWFQQKPGKSPKPLIYYASNRYSGVPSRFSGSGSGTDFTLTISSLQAEDFAVYFCGQDYTSPRTFGGGTKLEIKRTVAAPSVFIFPPSDEQLKSGTASVVCLLNNFYPREAKVQWKVDNALQSGNSQESVTEQDSKDSTYSLSSTLTLSKADYEKHKVYACEVTHQGLSSPVTKSFNRGEC	0 relative (EC50 OS001/EC50 construct)	0 relative (EC50 OS001/EC50 construct)	
OS003 (antibody, human IgG1, kappa) heavy: not shown light: DIVMTQSPSSLSASVGDRVTITCRASQSVSSDVAWFQQKPGKSPKPLIYYASNRYSGVPSRFSGSGSGTDFTLTISSLQAEDFAVYFCGQDYTSPRTFGGGTKLEIKRTVAAPSVFIFPPSDEQLKSGTASVVCLLNNFYPREAKVQWKVDNALQSGNSQESVTEQDSKDSTYSLSSTLTLSKADYEKHKVYACEVTHQGLSSPVTKSFNRGEC	1.3 relative (EC50 OS001/EC50 construct)	1.5 relative (EC50 OS001/EC50 construct)	
OS007 (antibody, human IgG1, kappa) heavy: QVQLQESGPGLVKPSETLSLTCTVSGYSITSDYAWNWIRQFPGNKLEWMGYITYSGSTYYNPSLKSRVTISVDTSKNQFSLKLSSVTAADTATYYCVSGTYYFDYWGQGTTLTVSSASTKGPSVFPLAPSSKSTSGGTAALGCLVKDYFPEPVTVSWNSGALTSGVHTFPAVLQSSGLYSLSSVVTVPSSSLGTQTYICNVNHKPSNTKVDKKVEPKSCDKTHTCPPCPAPELLAGPDVFLFPPKPKDTLMISRTPEVTCVVVDVSHEDPEVKFNWYVDGVEVHNAKTKPREEQYNSTYRVVSVLTVLHQDWLNGKEYKCKVSNKALPAPEEKTISKAKGQPREPQVYTLPPSRDELTKNQVSLTCLVKGFYPSDIAVEWESNGQPENNYKTTPPVLDSDGSFFLYSKLTVDKSRWQQGNVFSCSVMHEALHNHYTQKSLSLSPGK light: DIVMTQSPSSLSASVGDRVTITCRASQSVSSDVAWFQQKPGKSPKPLIYYASNRYSGVPSRFSGSGSGTDFTLTISSLQAEDFAVYFCGQDYTSPRTFGGGTKLEIKRTVAAPSVFIFPPSDEQLKSGTASVVCLLNNFYPREAKVQWKVDNALQSGNSQESVTEQDSKDSTYSLSSTLTLSKADYEKHKVYACEVTHQGLSSPVTKSFNRGEC	5.6 relative (EC50 OS001/EC50 construct)	4 relative (EC50 OS001/EC50 construct)	
OS022 (antibody, human IgG1, kappa, afucosylated glycan (GlymaxX expression), IgG1, HC D72E, afucosylated; also called IgG1 HC D72E afucosylated) heavy: not shown light: DIVMTQSPSSLSASVGDRVTITCRASQSVSSDVAWFQQKPGKSPKPLIYYASNRYSGVPSRFSGSGSGTDFTLTISSLQAEDFAVYFCGQDYTSPRTFGGGTKLEIKRTVAAPSVFIFPPSDEQLKSGTASVVCLLNNFYPREAKVQWKVDNALQSGNSQESVTEQDSKDSTYSLSSTLTLSKADYEKHKVYACEVTHQGLSSPVTKSFNRGEC			Kd [3]: 0.95 nM; koff [3]: 0.00049 s⁻¹; kon [3]: 520000 M⁻¹ s⁻¹
OS004 (antibody, human IgG1, kappa) heavy: QVQLQESGPGLVKPSETLSLTCTVSGYSITSDYAWNWIRQFPGNKLEWMGYITYSGSTYYNPSLKSRVTISVDTSKNQFSLKLSSVTAADTATYYCVSGTYYFDYWGQGTTLTVSSASTKGPSVFPLAPSSKSTSGGTAALGCLVKDYFPEPVTVSWNSGALTSGVHTFPAVLQSSGLYSLSSVVTVPSSSLGTQTYICNVNHKPSNTKVDKKVEPKSCDKTHTCPPCPAPELLGGPSVFLFPPKPKDTLMISRTPEVTCVVVDVSHEDPEVKFNWYVDGVEVHNAKTKPREEQYNYARVVSVLTVLHQDWLNGKEYKCKVSNKALPAPIAATISKAKGQPREPQVYTLPPSRDELTKNQVSLTCLVKGFYPSDIAVEWESNGQPENNYKTTPPVLDSDGSFFLYSKLTVDKSRWQQGNVFSCSVMHEALHNHYTQKSLSLSPGK light: DIVMTQSPSSLSASVGDRVTITCRASQSVSSDVAWFQQKPGKSPKPLIYYASNRYSGVPSRFSGSGSGTDFTLTISSLQAEDFAVYFCGQDYTSPRTFGGGTKLEIKRTVAAPSVFIFPPSDEQLKSGTASVVCLLNNFYPREAKVQWKVDNALQSGNSQESVTEQDSKDSTYSLSSTLTLSKADYEKHKVYACEVTHQGLSSPVTKSFNRGEC	3.5 relative (EC50 OS001/EC50 construct)	1.6 relative (EC50 OS001/EC50 construct)	
OS002 (antibody, human IgG1, kappa) heavy: not shown light: DIVMTQSPSSLSASVGDRVTITCRASQSVSSDVAWFQQKPGKSPKPLIYYASNRYSGVPSRFSGSGSGTDFTLTISSLQAEDFAVYFCGQDYTSPRTFGGGTKLEIKRTVAAPSVFIFPPSDEQLKSGTASVVCLLNNFYPREAKVQWKVDNALQSGNSQESVTEQDSKDSTYSLSSTLTLSKADYEKHKVYACEVTHQGLSSPVTKSFNRGEC	1.5 relative (EC50 OS001/EC50 construct)	0.9 relative (EC50 OS001/EC50 construct)	
OS018 (antibody, human IgG1, kappa, also called IgG1 HC D72E) heavy: not shown light: DIVMTQSPSSLSASVGDRVTITCRASQSVSSDVAWFQQKPGKSPKPLIYYASNRYSGVPSRFSGSGSGTDFTLTISSLQAEDFAVYFCGQDYTSPRTFGGGTKLEIKRTVAAPSVFIFPPSDEQLKSGTASVVCLLNNFYPREAKVQWKVDNALQSGNSQESVTEQDSKDSTYSLSSTLTLSKADYEKHKVYACEVTHQGLSSPVTKSFNRGEC			Kd [4]: 0.51 nM; koff [4]: 0.00033 s⁻¹; kon [4]: 650000 M⁻¹ s⁻¹
OS008 (antibody, human IgG1, kappa) heavy: QVQLQESGPGLVKPSETLSLTCTVSGYSITSDYAWNWIRQFPGNKLEWMGYITYSGSTYYNPSLKSRVTISVDTSKNQFSLKLSSVTAADTATYYCVSGTYYFDYWGQGTTLTVSSASTKGPSVFPLAPSSKSTSGGTAALGCLVKDYFPEPVTVSWNSGALTSGVHTFPAVLQSSGLYSLSSVVTVPSSSLGTQTYICNVNHKPSNTKVDKKVEPKSCDKTHTCPPCPAPELLAGPDVFLFPPKPKDTLMISRTPEVTCVVVDVSHEDPEVKFNWYVDGVEVHNAKTKPREEQYNSTYRVVSVLTVLHQDWLNGKEYKCKVSNKALPLPEEKTISKAKGQPREPQVYTLPPSRDELTKNQVSLTCLVKGFYPSDIAVEWESNGQPENNYKTTPPVLDSDGSFFLYSKLTVDKSRWQQGNVFSCSVMHEALHNHYTQKSLSLSPGK light: DIVMTQSPSSLSASVGDRVTITCRASQSVSSDVAWFQQKPGKSPKPLIYYASNRYSGVPSRFSGSGSGTDFTLTISSLQAEDFAVYFCGQDYTSPRTFGGGTKLEIKRTVAAPSVFIFPPSDEQLKSGTASVVCLLNNFYPREAKVQWKVDNALQSGNSQESVTEQDSKDSTYSLSSTLTLSKADYEKHKVYACEVTHQGLSSPVTKSFNRGEC	3.2 relative (EC50 OS001/EC50 construct)	4.5 relative (EC50 OS001/EC50 construct)	
OS023 (antibody, human IgG1, kappa, afucosylated glycan (GlymaxX expression), IgG1, HC D72E and LC G89Q, afucosylated; also called IgG1 HC D72E LC G89Q afucosylated) heavy: not shown light: DIVMTQSPSSLSASVGDRVTITCRASQSVSSDVAWFQQKPGKSPKPLIYYASNRYSGVPSRFSGSGSGTDFTLTISSLQAEDFAVYFCQQDYTSPRTFGGGTKLEIKRTVAAPSVFIFPPSDEQLKSGTASVVCLLNNFYPREAKVQWKVDNALQSGNSQESVTEQDSKDSTYSLSSTLTLSKADYEKHKVYACEVTHQGLSSPVTKSFNRGEC			Kd [3]: 0.8 nM; koff [3]: 0.00037 s⁻¹; kon [3]: 460000 M⁻¹ s⁻¹
OS020 (antibody, human IgG1, kappa, IgG1, HC D72E and LC G89Q, wild type glycosylation; also called IgG1 HC D72E LC G89Q) heavy: not shown light: DIVMTQSPSSLSASVGDRVTITCRASQSVSSDVAWFQQKPGKSPKPLIYYASNRYSGVPSRFSGSGSGTDFTLTISSLQAEDFAVYFCQQDYTSPRTFGGGTKLEIKRTVAAPSVFIFPPSDEQLKSGTASVVCLLNNFYPREAKVQWKVDNALQSGNSQESVTEQDSKDSTYSLSSTLTLSKADYEKHKVYACEVTHQGLSSPVTKSFNRGEC			Kd [4]: 0.47 nM; koff [4]: 0.00022 s⁻¹; kon [4]: 470000 M⁻¹ s⁻¹
OS019 (antibody, human IgG1, kappa, also called IgG1 LC G89Q) heavy: not shown light: DIVMTQSPSSLSASVGDRVTITCRASQSVSSDVAWFQQKPGKSPKPLIYYASNRYSGVPSRFSGSGSGTDFTLTISSLQAEDFAVYFCQQDYTSPRTFGGGTKLEIKRTVAAPSVFIFPPSDEQLKSGTASVVCLLNNFYPREAKVQWKVDNALQSGNSQESVTEQDSKDSTYSLSSTLTLSKADYEKHKVYACEVTHQGLSSPVTKSFNRGEC			Kd [4]: 0.41 nM; koff [4]: 0.00021 s⁻¹; kon [4]: 520000 M⁻¹ s⁻¹

From patent EP4563596A1 (OncoSpear ApS, dated 2025)
